According to patent US20220160699, “MODULATORS OF TDP-43” (Alteron Therapeutics, Inc., published 2022):

Biological target: TDP-43 (TARDBP) (UniProt Q13148 Q13148:1-414)
Assay: pulldown; streptavidin bead pulldown and anti-TDP-43 Western; 20 mM HEPES pH 7.5, 0.3% CHAPS, 150 mM NaCl, on ice/4 C; binding blocked by 30 uM ALT-59, and complex displaced by ALT-59
Conditions: tags: N-terminal His-Sumo, expressed in E. coli Rosetta (DE3) from pSumo/TDP43; label: 3' biotin
Procedure: Additional experiments were performed to confirm the direct binding of ALT-59 to TDP-43. One microgram of purified His-Sumo-TDP43 was incubated with 1 μg TG₁₂-biotin ([…]-biotin (SEQ ID NO: 1)) in binding buffer containing 20 mM HEPES, pH 7.5, 0.3% CHAPS, 150 mM NaCl, (Sigma-Aldrich), and protease inhibitor cocktail (Roche) for 4 hours on ice in the presence of carrier (50% Cremophor EL, 50% absolute ethanol) or 30 μM ALT-59 dissolved in carrier. Streptavidin magnetic beads (20 μl settled beads, GE Healthcare Life Sciences) were added to pull down the DNA-protein complex by rotating at 4° C. for 2 hours. After being washed 5 times with binding buffer, samples were boiled in protein sample buffer. In another experiment, DNA-protein complex bound to Streptavidin magnetic beads were washed and split into three parts, two of which were incubated with either carrier or ALT-59 for 4 hours with rotation at 4° C. to elute TDP-43 from TG₁₂-biotin-streptavidin. The third part and elutes were mixed with protein sample buffer and boiled. Protein samples from the above experiments were loaded onto 4-20% Tris-glycine gel (Invitrogen) for fractionation. Western blotting was performed using anti-TDP-43 antibody (Proteintech Group).

Sequence of TDP-43 (TARDBP) (Q13148 whole entry, one chain of several): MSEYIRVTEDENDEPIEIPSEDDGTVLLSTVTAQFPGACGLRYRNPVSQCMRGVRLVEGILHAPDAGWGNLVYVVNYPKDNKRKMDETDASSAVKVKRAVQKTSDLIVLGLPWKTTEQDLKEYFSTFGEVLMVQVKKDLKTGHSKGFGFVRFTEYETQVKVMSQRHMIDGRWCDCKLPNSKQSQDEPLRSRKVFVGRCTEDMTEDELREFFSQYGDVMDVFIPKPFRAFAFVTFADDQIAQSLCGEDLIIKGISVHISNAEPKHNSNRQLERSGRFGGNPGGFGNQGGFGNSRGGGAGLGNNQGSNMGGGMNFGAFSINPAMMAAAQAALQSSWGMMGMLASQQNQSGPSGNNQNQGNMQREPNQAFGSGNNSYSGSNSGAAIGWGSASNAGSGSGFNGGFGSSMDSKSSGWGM

TGTGTGTGTGTGTGTGTGTGTGTG (ssDNA) [TG12-biotin]
binding result: binds
